How the values were obtained:
Fly Caf1 wild-type = biological target: T1, Fly Caf1 wild-type (fly, UniProt Q24572 1-430); test: pull-down; GST-Ash1 fragments held on GST resin; 200 µL of 0.1 mg/mL purified Caf1 added for 1 h; 150 mM NaCl, 50 mM Tris-HCl (8.0); bound proteins analysed by SDS-PAGE; conditions: both partners purified
T1 construct: Caf1 (p55/Nurf55), fly; The same paragraph speaks of 'full-length Caf1' for the AMC co-expression; probably full length here too; also called p55; Nurf55; source: Sf9 cells (baculovirus), purified (Ni-NTA, HiTrap Q HP, Superdex 200); not shown: His6, N-terminal, cleaved
T1 sequence (Q24572 whole entry, the tested form may be a part): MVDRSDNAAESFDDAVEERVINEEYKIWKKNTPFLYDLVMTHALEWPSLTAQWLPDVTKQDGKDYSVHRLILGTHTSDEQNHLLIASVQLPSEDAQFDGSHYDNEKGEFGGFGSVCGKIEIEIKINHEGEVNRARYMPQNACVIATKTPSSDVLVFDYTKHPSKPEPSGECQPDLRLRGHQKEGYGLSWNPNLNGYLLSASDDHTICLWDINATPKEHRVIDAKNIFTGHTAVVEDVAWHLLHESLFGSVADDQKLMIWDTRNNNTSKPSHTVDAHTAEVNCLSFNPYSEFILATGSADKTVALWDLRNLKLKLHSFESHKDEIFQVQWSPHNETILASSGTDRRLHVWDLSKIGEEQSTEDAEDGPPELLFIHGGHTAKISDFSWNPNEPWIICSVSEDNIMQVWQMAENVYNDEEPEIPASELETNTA

[1] = biological target: T2, Fly Caf1 H3 binding pocket mutant (E235Q/D252K/E279Q) (fly, UniProt Q24572 1-430, E235Q | D252K | E279Q); test: as above; conditions: both partners purified
T2 construct: In the functional row this mutant stood as a subunit of the AMC complex (AMC mut); source: Sf9 cells (baculovirus), purified (Ni-NTA, HiTrap Q HP, Superdex 200); not shown: His6, N-terminal, cleaved
T2 sequence (Q24572 whole entry E235Q/D252K/E279Q): as the sequence (Q24572 whole entry, the tested form may be a part) above, with E235Q, D252K, E279Q counted along it

B1: GST-CBM (Ash1 Caf1 Binding Motif, 1582–1616) (domain or fragment, fly, UniProt Q9VW15 1582-1616, looked up)
chain: AKLQPLSEKEKKLVRQFNTFLVRNFEKIRRCKAKR
notes: Vector pGEX-4T-1; also called Ash1_C1.6; Ash1_CBM
binding result (Fly Caf1 wild-type): binds
binding result [1]: binds
